Drawing on US20030124114A1, this text covers HAV infectivity (neutralization) for 1 substance.

The test concerns the target hepatitis A virus (HAV) particles (hepatitis A virus). The test can be described thus: cell-based or functional assay.

D1muc-Fc fusion protein (IgVmuc-hIg) showed an HAV infectivity (neutralization) of 2 logs.
